# Values of other authors as cited in article PMC7424061.
# Target: p53 TAD (Homo sapiens) (UniProt P04637)
# Sequence (P04637 1-61): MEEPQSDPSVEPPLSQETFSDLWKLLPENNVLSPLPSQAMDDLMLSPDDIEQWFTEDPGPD
# azurin, sequence (P00282 21-148): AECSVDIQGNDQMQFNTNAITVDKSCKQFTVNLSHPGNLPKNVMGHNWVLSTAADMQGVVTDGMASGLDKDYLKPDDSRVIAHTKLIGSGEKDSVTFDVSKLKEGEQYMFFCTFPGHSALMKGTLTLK
substance,measurement,value
azurin (from UniProt P00282),Kd,7 µM
